According to patent US5516678:

Tested on: SspI restriction endonuclease (native) (Sphaerotilus sp. ATCC 13925)
Experiment: cleavage_in_vitro
Conditions: Mono S fractions, homogeneous; lambda DNA assay stated in D-7

## phage lambda DNA
  activity: 140000 units/mg
